Experimental data taken from US20160244525A1 (Genentech, published 2016).
Where a chain is given by its changes, count along the chain named.

B1: 2B.1.1 (antibody, human IgG1, kappa, V domains shown)
VH: EVQLVESGGGLVQPGGSLRLSCAASGFTFTSTGISWVRQAPGKGLEWVGRYWAWDGSTNYADSVKGRFTISADTSKNTAYLQMNSLRAEDTAVYYCARTYGIYDLYVDYTEYVMDYWGQGTLVTVSS
VL: DIQMTQSPSSLSASVGDRVTITCRASQDVDTSLAWYKQKPGKAPKLLIYSASFLYSGVPSRFSGSGSGTDFTLTISSLQPEDFATYYCQQSTGHPQTFGQGTKVEIKR
notes: Full IgG1/kappa chains
B2: Fab fragment of Mab 2B.1.3 (Fab, V domains shown)
VH: B1 VH with Y51T, W52H, A53L, W54G
VL: B1 VL
notes: Fab; also called 2B.1.3 Fab; Fab 2B.1.3

How the values were obtained:
FGFR4-6xHis = biological target: T1, FGFR4-6xHis (human, UniProt P22455 22-369, limits assumed); experiment: SPR, IgG captured, FGFR4-6xHis flowed
T1 sequence: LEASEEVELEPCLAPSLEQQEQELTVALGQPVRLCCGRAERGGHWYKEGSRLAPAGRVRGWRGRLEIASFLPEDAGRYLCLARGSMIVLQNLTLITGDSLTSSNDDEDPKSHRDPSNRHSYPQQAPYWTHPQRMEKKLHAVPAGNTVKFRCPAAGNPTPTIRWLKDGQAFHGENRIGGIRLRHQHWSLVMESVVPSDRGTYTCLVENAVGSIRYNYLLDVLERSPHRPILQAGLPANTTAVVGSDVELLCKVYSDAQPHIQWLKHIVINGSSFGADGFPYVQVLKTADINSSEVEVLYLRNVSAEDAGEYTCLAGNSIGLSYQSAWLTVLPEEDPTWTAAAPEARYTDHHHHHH
Procedure: (§1) A saturated amount of anti-human Fc monoclonal antibody was immobilized onto a CM5 biosensor chip by following the product instructions. […] FGFR antigens of various concentrations were injected at a flow rate 30 μL/min. After each binding cycle, flow cells were regenerated using 3M MgCl₂. Kinetic analyses were performed using the T100 evaluation software to obtain the kinetic and affinity constants.
(§2) 1.3 variants were determined by capturing FGFR4-Fc and flowing the antibody Fab fragments (Table 12).

FGFR3-IIIc = biological target: T2, FGFR3-IIIc (human, UniProt P22607 23-375, limits assumed); experiment: surface plasmon resonance (Biacore)
T2 construct: also called human FGFR3-IIIc
T2 sequence: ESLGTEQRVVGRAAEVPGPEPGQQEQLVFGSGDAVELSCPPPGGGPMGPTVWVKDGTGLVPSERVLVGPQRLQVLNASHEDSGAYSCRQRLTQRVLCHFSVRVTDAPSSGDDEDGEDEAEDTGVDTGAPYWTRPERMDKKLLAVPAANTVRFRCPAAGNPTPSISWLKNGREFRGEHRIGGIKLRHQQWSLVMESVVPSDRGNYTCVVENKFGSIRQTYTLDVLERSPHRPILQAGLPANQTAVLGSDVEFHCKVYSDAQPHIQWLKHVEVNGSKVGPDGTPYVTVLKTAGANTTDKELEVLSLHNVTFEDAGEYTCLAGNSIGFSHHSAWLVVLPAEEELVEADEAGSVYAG

FGFR1-IIIb = biological target: T3, FGFR1-IIIb (human, UniProt P11362-19 22-376, limits assumed); experiment: SPR
T3 construct: Soluble FGFR antigen in SPR
T3 sequence (looked up): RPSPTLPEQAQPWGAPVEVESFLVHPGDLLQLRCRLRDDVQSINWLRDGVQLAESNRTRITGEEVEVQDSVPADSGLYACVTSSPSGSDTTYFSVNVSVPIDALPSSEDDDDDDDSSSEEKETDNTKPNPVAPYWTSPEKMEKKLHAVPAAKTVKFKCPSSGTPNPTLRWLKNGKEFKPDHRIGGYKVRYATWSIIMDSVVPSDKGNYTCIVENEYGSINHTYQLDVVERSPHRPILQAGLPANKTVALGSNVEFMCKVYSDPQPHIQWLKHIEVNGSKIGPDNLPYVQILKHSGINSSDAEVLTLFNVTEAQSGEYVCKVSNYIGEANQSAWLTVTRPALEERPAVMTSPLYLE
Procedure: as §1, §2

FGFR2-IIIc = biological target: T4, FGFR2-IIIc (human, UniProt P21802 22-377); experiment: SPR
T4 construct: also called human FGFR2-IIIc; FGFR2-IIIc-His
Procedure: as §1, §2

FGFR4-Fc = biological target: T5, FGFR4-Fc (human, UniProt P22455 22-369); experiment: SPR, FGFR4-Fc captured, Fab flowed; FGFR4-Fc captured, Fab flowed
T5 sequence (looked up): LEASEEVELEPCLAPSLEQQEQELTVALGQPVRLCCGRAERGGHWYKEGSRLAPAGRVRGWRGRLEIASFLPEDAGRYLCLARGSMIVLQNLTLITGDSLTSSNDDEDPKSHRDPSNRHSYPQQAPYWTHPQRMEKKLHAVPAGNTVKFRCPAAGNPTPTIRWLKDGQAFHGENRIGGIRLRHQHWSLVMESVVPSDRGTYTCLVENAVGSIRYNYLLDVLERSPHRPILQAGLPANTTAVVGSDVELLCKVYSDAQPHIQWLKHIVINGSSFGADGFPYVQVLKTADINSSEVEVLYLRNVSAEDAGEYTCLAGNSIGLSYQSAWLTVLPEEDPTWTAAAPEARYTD
Procedure: Later, the KD for the 2B. 1.3 variants were determined by capturing FGFR4-Fc and flowing the antibody Fab fragments (Table 12).

T4 sequence (P21802 22-377 limits assumed): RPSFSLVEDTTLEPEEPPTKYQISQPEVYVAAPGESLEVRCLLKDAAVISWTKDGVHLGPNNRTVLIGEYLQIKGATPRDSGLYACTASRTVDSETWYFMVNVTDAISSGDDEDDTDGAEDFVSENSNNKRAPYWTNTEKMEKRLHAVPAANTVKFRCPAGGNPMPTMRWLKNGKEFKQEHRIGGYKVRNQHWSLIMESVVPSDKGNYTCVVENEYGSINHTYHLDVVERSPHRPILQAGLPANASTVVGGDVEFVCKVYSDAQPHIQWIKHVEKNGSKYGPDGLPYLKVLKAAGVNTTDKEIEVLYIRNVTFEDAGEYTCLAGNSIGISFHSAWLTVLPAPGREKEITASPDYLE

Row | Binder | Kd (FGFR4-6xHis) [nM] | Kd (FGFR3-IIIc) [nM] | binding result (FGFR1-IIIb) | Kd (FGFR2-IIIc) [nM] | Kd (FGFR4-Fc) [nM]
1 | B1 | 2.8 | 0.0663 | no binding | 2.8 | –
2 | B2 | – | – | – | – | 32
